Source: PMC6026870, “Selective induction of cancer cell death by VDAC1‐based peptides and their potential use in cancer therapy” (Molecular Oncology, 2018)
Ends that are not written are not given here.

B2: Human hexokinase I (HK‐I), recombinant (enzyme, UniProt P19367 1-917, looked up)
chain: MIAAQLLAYYFTELKDDQVKKIDKYLYAMRLSDETLIDIMTRFRKEMKNGLSRDFNPTATVKMLPTFVRSIPDGSEKGDFIALDLGGSSFRILRVQVNHEKNQNVHMESEVYDTPENIVHGSGSQLFDHVAECLGDFMEKRKIKDKKLPVGFTFSFPCQQSKIDEAILITWTKRFKASGVEGADVVKLLNKAIKKRGDYDANIVAVVNDTVGTMMTCGYDDQHCEVGLIIGTGTNACYMEELRHIDLVEGDEGRMCINTEWGAFGDDGSLEDIRTEFDREIDRGSLNPGKQLFEKMVSGMYLGELVRLILVKMAKEGLLFEGRITPELLTRGKFNTSDVSAIEKNKEGLHNAKEILTRLGVEPSDDDCVSVQHVCTIVSFRSANLVAATLGAILNRLRDNKGTPRLRTTVGVDGSLYKTHPQYSRRFHKTLRRLVPDSDVRFLLSESGSGKGAAMVTAVAYRLAEQHRQIEETLAHFHLTKDMLLEVKKRMRAEMELGLRKQTHNNAVVKMLPSFVRRTPDGTENGDFLALDLGGTNFRVLLVKIRSGKKRTVEMHNKIYAIPIEIMQGTGEELFDHIVSCISDFLDYMGIKGPRMPLGFTFSFPCQQTSLDAGILITWTKGFKATDCVGHDVVTLLRDAIKRREEFDLDVVAVVNDTVGTMMTCAYEEPTCEVGLIVGTGSNACYMEEMKNVEMVEGDQGQMCINMEWGAFGDNGCLDDIRTHYDRLVDEYSLNAGKQRYEKMISGMYLGEIVRNILIDFTKKGFLFRGQISETLKTRGIFETKFLSQIESDRLALLQVRAILQQLGLNSTCDDSILVKTVCGVVSRRAAQLCGAGMAAVVDKIRENRGLDRLNVTVGVDGTLYKLHPHFSRIMHQTVKELSPKCNVSFLLSEDGSGKGAALITAVGVRLRTEASS
modifications: fluorescently labeled using a NanoTemper BLUE protein‐labeling kit (in the MST)

Experiments:
PWR‐1E = experiment: Cell death, PI staining and FACS; format: cell-based; conditions: 6 h, PI/FACS (Fig. 2G)
Method: (§1) Leukemia cells, U‐937, MEC‐1 cells (4 × 10^5 or 8 × 10^5 cells/sample, respectively), as well as other leukemia or suspension cell lines, were incubated in 200 μL serum‐free medium with various concentrations of the peptide for 90 min at 23–25 °C, collected by centrifugation (500 g, 5 min), washed with PBS, and analyzed for cell death. Adherent cells (6 × 10^5 mL^−1 at 70–80% confluence) were incubated with the peptide of interest in 500 μL serum‐free recommended culture medium for 3–6 h at 37 °C and 5% CO2. The cells were then trypsinized, centrifuged (1500 g, 5 min), washed with PBS, and analyzed for the desired activity. Following peptide treatment, cells were subjected to cell death analysis. […] PRO software (BD Biosciences, San Jose, CA, USA).
(§2) For each line, cells were incubated with different peptide concentrations, and cell death was determined by PI staining and FACS analysis (Figs 1, 2, 3).

T‐Rex‐293 = experiment: Cell death, PI staining and FACS; format: cell-based, human
Method: as §1, §2

PANC1 = experiment: Cell death, PI staining and FACS; format: cell-based; conditions: PANC1 (Group 3, Fig. 1H); 6 h; about 10% in the absence of peptides
Method: as §1, §2

[1] = target: T1, Human hexokinase II (HK‐II), recombinant (human, UniProt P52789 1-917, fluorescently labeled using a NanoTemper BLUE protein‐labeling kit (in the MST)); experiment: MST; fluorescently labeled HK‐I (830 nM) or HK‐II (100 nM) incubated 20 min with peptide (1–100 μM) in PBS; NanoTemper Monolith‐NT115, 40% LED, 40% IR laser power; conditions: both partners purified
T1 construct: hexokinase II (HK‐II), human, cloned into plasmid pET‐His; source: E. coli BL21, IPTG induction, purified (HiTrap nickel column, Blue HiTrap column)
T1 sequence (looked up): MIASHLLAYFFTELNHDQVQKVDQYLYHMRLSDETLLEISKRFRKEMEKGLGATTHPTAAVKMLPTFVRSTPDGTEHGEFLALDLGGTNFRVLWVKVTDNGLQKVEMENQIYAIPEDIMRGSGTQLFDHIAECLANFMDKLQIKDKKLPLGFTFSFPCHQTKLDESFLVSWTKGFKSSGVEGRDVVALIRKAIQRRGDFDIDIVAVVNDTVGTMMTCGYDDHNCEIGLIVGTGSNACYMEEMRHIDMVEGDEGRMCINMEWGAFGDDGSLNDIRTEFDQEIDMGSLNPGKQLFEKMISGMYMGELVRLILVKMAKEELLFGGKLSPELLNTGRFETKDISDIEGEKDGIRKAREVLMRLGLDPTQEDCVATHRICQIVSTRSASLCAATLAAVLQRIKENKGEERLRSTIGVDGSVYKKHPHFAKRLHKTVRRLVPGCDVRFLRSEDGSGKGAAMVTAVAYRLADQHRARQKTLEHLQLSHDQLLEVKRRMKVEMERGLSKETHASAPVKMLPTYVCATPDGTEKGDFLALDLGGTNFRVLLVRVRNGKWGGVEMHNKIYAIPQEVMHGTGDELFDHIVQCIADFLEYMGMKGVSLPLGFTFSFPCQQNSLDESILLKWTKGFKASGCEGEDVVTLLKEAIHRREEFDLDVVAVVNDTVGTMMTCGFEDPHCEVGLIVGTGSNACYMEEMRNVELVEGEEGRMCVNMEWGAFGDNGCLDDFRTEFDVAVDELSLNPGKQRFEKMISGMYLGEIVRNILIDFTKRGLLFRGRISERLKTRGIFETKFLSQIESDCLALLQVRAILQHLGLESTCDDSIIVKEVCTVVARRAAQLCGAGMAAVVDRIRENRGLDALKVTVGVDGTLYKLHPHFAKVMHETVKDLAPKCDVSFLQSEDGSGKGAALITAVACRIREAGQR

[2] = target: B2; experiment: as above; conditions: both partners purified
[3] = target: T2, Human hexokinase II (HK‐II), recombinant (human, UniProt P52789 1-917, fluorescently labeled using a NanoTemper BLUE protein‐labeling kit (in the MST)); experiment: MST
T2 chain: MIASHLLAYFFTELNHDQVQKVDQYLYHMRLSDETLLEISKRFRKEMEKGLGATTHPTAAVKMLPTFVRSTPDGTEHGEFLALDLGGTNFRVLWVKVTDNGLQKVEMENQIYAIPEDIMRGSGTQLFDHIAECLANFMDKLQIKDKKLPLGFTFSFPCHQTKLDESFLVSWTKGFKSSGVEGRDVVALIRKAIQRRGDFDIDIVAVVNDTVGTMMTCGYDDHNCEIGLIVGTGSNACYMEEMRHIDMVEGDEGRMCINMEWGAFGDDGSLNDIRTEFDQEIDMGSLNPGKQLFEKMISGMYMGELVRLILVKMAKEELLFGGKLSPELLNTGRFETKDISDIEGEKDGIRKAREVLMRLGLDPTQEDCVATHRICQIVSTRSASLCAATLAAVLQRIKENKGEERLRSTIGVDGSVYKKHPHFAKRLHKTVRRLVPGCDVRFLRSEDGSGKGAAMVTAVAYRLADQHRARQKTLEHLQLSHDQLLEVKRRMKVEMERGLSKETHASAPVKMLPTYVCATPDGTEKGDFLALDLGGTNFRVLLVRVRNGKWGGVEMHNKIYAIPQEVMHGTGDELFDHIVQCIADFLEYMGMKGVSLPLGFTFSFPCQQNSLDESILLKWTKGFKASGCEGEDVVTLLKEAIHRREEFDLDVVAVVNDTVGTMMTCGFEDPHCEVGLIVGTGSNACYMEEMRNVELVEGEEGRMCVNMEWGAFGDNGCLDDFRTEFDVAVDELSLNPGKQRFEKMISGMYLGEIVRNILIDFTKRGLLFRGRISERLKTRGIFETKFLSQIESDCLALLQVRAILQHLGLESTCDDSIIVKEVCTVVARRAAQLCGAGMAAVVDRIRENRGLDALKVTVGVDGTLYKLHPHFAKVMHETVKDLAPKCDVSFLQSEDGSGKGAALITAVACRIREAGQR

[4] = target: voltage‐dependent anion channel 1 (VDAC1) (human (endogenous in HeLa), UniProt P21796 1-283); experiment: cell-based or functional assay

“HAIYPRHSWTWE-199-KKLETA VNLAWTAGNSN-216-KWTWK [Tf‐LP4]” was tested, and the “cell death induction in noncancerous cells” value (PWR‐1E) was “almost no cell death induction” and the “cell death induction in noncancerous cells” value (T‐Rex‐293; T‐Rex‐293, 6 h, PI/FACS (Fig. 2E)) was “almost no cell death induction”.

In the case of “MAVPPTYADLGKSARDVFTKGYGFGLRQIKIWFQNRRMKWKK [N‐Ter‐Antp]”, the “steady‐state level of cell death” value (PANC1) is reported as “about 50%” and the “steady‐state level of cell death” value (T‐Rex‐293; T‐Rex‐293 (Group 3, Fig. 1I), 6 h, about 10% in the absence of peptides) is reported as “about 50%”.

B1: Antp‐LP4 (peptide)
peptide: RQIKIWFQNRRMKWKKSWTWEKKLETAVNLAWTAGNSNKWTWK
notes: amino acids added to form a loop‐shaped tryptophan zipper (N‐terminal arm); amino acids added to form a loop‐shaped tryptophan zipper (C‐terminal arm); 43 residues as printed; source: synthetic peptide (GL Biochem, > 85% purity)
In the case of B1, the binding result [1] is reported as “binds”, the binding result [2] is reported as “binds” and the Kd [3] is reported as 7.1 µM.

B2 was tested, and the “HK‐I in the cytosolic fraction (0.025% digitonin fractionation, immunoblot) of A549 cells treated with Tf‐D‐LP4 (3, 5, 10 μM, 3 h)” value [4] was ~2 fold and the “HK‐I in the cytosolic fraction (0.025% digitonin fractionation, immunoblot) of HeLa cells treated with R‐Tf‐D‐LP4 (3, 5, 10 μM, 3 h)” value [4] was ~2 fold.
